Where two headings read alike, the source gives them in different places.
B1: G102A: maize EPSPS with G102A mutation (G101A when numbered without N-terminal Met) (protein)
chain: MAGAEEIVLQPIKEISGTVKLPGSKSLSNRILLLAALSEGTTVVDNLLNSEDVHYMLGALRTLGLSVEADKAAKRAVVVGCGGKFPVEDAKEEVQLFLGNAATAMRPLTAAVTAAGGNATYVLDGVPRMRERPIGDLVVGLKQLGADVDCFLGTDCPPVRVNGIGGLPGGKVKLSGSISSQYLSALLMAAPLALGDVEIEIIDKLISIPYVEMTLRLMERFGVKAEHSDSWDRFYIKGGQKYKSPKNAYVEGDASSASYFLAGAAITGGTVTVEGCGTTSLQGDVKFAEVLEMMGAKVTWTETSVTVTGPPREPFGRKHLKAIDVNMNKMPDVAMTLAVVALFADGPTAIRDVASWRVKETERMVAIRTELTKLGASVEEGPDYCIITPPEKLNVTAIDTYDDHRMAMAFSLAACAEVPVTIRDPGCTRKTFPDYFDVLSTFVKN
modifications: Zea mays
B2: Zm native: native maize EPSPS with added N-terminal Met, SEQ ID NO: 1, reference EPSPS sequence (protein)
chain: MAGAEEIVLQPIKEISGTVKLPGSKSLSNRILLLAALSEGTTVVDNLLNSEDVHYMLGALRTLGLSVEADKAAKRAVVVGCGGKFPVEDAKEEVQLFLGNAGTAMRPLTAAVTAAGGNATYVLDGVPRMRERPIGDLVVGLKQLGADVDCFLGTDCPPVRVNGIGGLPGGKVKLSGSISSQYLSALLMAAPLALGDVEIEIIDKLISIPYVEMTLRLMERFGVKAEHSDSWDRFYIKGGQKYKSPKNAYVEGDASSASYFLAGAAITGGTVTVEGCGTTSLQGDVKFAEVLEMMGAKVTWTETSVTVTGPPREPFGRKHLKAIDVNMNKMPDVAMTLAVVALFADGPTAIRDVASWRVKETERMVAIRTELTKLGASVEEGPDYCIITPPEKLNVTAIDTYDDHRMAMAFSLAACAEVPVTIRDPGCTRKTFPDYFDVLSTFVKN
modifications: Zea mays
B3: Zm D2: maize EPSPS variant, SEQ ID NO: 10 (protein)
chain: MRGWEEIVLQPIKEISGTVKLPGSKSLSNRILLLAALSEGTTVVDNLLNSEDVHYMLGALRTLGLSVEHDKAAKRAVVVGCGGRFPVEDAKGEVQLFCGNAATAMRPLTAAVTAAGGNATYVLDGVPRMRERPIGDLVVGLKQLGADVDCFLGTDCPPVRVNGIGGLPGGKVKLSGSISSQYLSALLMAAPLALGDVEIEIIDKLISLPYVEMTLRLMERFGVKAEHSDSWDRFYIKGGQKYESPKNAYVEGDASSASYFLAGAAITGGTVTVEGCGTTSLQGDVKFAEVLEMMGAKVTWTETSVTVTGPPREPFGRKHLKAIDVNMNKMPDAAMTLAVVALFADGPTAIRDVASWRVKETERMVAIRTELTKLGASVEEGPDYCIITPPPKLNVTAIDTYGDHRMAMAFSLAACAEVPVTIRDPGCTRKTFPDYFDVLSTFVKN
modifications: Zea mays
B4: Zm D2-15: maize EPSPS variant, SEQ ID NO: 9 (protein)
chain: MRGWEEIVLQPIKEISGTVKLPGSKSLSNRILLLAALAEGTTVVDNLLNSEDVHYMLGALRTLGLSVEHDKAAKRAVVVGCGGRFPVEDAKEEVQLFCGNAATAMRPLTAAVTAAGGNATYVLDGVPRMRERPIGDLVVGLKQLGADVDCFLGTDCPPVRVNGIGGLPGGKVKLSGSISSQYLSALLMAAPLALGDVEIEIIDKLISLPYVEMTLRLMERFGVKAEHNDSWDRFYIKGGQKYESPKNAYVEGDASSASYFLAGAAITGGTVTVEGCGTTSLQGDVKFAEVLEMMGAKVTWTETSVTVSGPPREPFGRKHLKAIDVNMNKMPDAAMTLAVVALFADGPTAIRDVASWRVKETERMVAICTELTKLGASVEEGPDYCIITPPPKLNVTAIDTYGDHRMAMAFSLAACAEVPVTIRDPGCTRKTFPDYFDVLSTFVKN
modifications: Zea mays
B5: Zm D2-64: maize EPSPS variant, SEQ ID NO: 7 (protein)
chain: MRKWEEIVLQPIKEISGTVKLPGSKSLSNRILLLAALSEGTTVVDNLLNSEDVLYMLGALRTLGLSVEHDKAAKRAVVVGCGGRFPVEDAKGEVQLFCGNAATAMRPLTAAVTAAGGNATYVLDGVPRMRERPIGDLVVGLKQLGADVDCFLGTDCPPVRVNGIGGLPGGKVKLSGSISSQYLSALLMAAPLALGDVEIEIIDKLISLPYVEMTLRLMERFGVKAEHSDSWDRFYIKGGQKYESPKNAYVEGDASSASYFLAGAAITGGTVTVEGCGTTSLQGDVKFAEVLEMMGAKVTWTETSVTVTGPPREPFGRKHLKAIDVNMNKMPDAAMTLAVVALFADGPTAIRDVASWRVKETERMVAICTELTKLGASVEEGPDYCIITPPPKLNVTAIDTYGDHRMAMAFSLAACAEVPVTIRDPGCTRKTFPDYFDVLSTFVKN
modifications: Zea mays

Legend:
maize EPSPS [1] = assay: kcat gly / kgly: enzyme turnover under application conditions (30 μM PEP and S3P, 1 mM glyphosate), phosphate release coupled to MESG; type: biochemical
Procedure: A more straight-forward, accurate and meaningful parameter is one in which one rate measurement is performed under presumed in vivo conditions, if known. To establish a set of conditions that mimic those under which the mutated enzyme needs to perform, the concentrations of PEP and S3P were set low (30 uM, subject to the sensitivity of assay conditions) to approach the presumed intracellular concentrations (˜15 uM, the approximate values of KM for both PEP and S3P). Glyphosate is included at 1 mM. The pH is set at 7.0 and ionic strength at 100 mM KCl, also to mimic known in vivo conditions. Ethylene glycol is present at 5% (v/v) to approximate the dielectric constant of intracellular fluid. The parameter is termed “enzyme turnover under application conditions”, which is herein shortened to “kcat gly”. The conventional formatting of the expression “kcat” is not used, to avoid this term being characterized as a standard kinetic constant.
(§1) EPSPS activity was determined by quantifying the phosphate generated from the EPSPS reaction. Release of inorganic phosphate was coupled to its reaction with 2-amino-6-mercapto-7-methylpurine ribonucleoside (MESG), catalyzed by purine nucleoside phosphorylase, according to previously described protocols. To determine the kcat gly, enzyme preparations were normalized to 0.1 mg/ml and four- to six-microliter aliquots of normalized enzyme were added to the wells of a low UV-absorbing 96-well assay plate (Greiner UV-Star). Reactions were started with the addition of 2×147 μl of reaction mixture containing 25 mM Hepes, pH 7.0, 100 mM KCl, 5% ethylene glycol, 30 μM each of PEP and S3P, 0.15 mM MESG, 1.5 U/ml purine nucleoside phosphorylase (Sigma N8264) and 1 mM glyphosate. Absorbance was monitored at 4 sec intervals for 50 sec with a Spectramax plate reader (Molecular Devices). […] Division by the enzyme concentration (0.04 to 0.1 uM, depending on activity) yields “kcat gly” in units of min^−1.
(§2) Approximately 30 substitutions were designed into each library. Assuming an average incorporation rate of six substitutions per variant, the theoretical size of such libraries is ˜7×10^5. Libraries were screened using methods described previously and the enhanced method described in Example 2. The number of colony-forming units plated and screened was in the range of 50 to 100% of the theoretical size. Up to 200 colonies per library were picked for evaluation of the expressed variant. Proteins were purified as described previously in PCT/US2016/054399, incorporated herein by reference. Protein concentration was determined by measuring optical density at 280 nm. The extinction coefficient of native maize EPSPS (0.676 OD/mg/ml) was calculated by vNTI and used to convert OD280 to mg/ml. Kinetic parameters were determined as described in Example 1.
A customized parameter for predicting performance in the treated plant that would be a more accurate representation than kcat/Km*Ki. […] However, kcat/Km*Ki may be inadequate for predicting the reaction velocity under the conditions of the application (plants sprayed with glyphosate) because it may neglect concentrations of substrate and inhibitor, factors that are not intrinsic to the enzyme, but on which the reaction rate depends. Therefore, libraries derived from C1 on in FIG. 2 were evaluated with a single rate measurement designed to take all factors in the rate equation for competitive inhibition into account. […] Glyphosate was included at 1 mM, a concentration attainable in tissues, especially meristems, receiving metabolite flow from treated leaves. The pH (7.0), ionic strength (100 mM KCl) and co-solvent concentration (5% ethylene glycol) were also intended to mimic in vivo conditions. The unit for the parameter is reaction rate (μM·min^−1) per enzyme concentration (μM), or min^−1, describing the enzyme turnover under application conditions, which we abbreviate as “kgly”. […]

maize EPSPS [2] = assay: substrate saturation kinetic analysis (kcat, KM PEP, KI glyphosate); type: biochemical; details: for kcat/Km*Ki: calculated with Km for PEP
Procedure: as §1, §2
Combinatorial shuffling, maize native EPSPS—The mutations discovered were used to construct a combinatorial library designed to explore combinations of the desensitizing mutations in novel sequence contexts provided by the newly identified neutral mutations. Note that the amino acid position numbering in this Example 10 refers to the relative position of native maize EPSPS without the N-terminal Met. Therefore, G101A in this Example would be G102A in reference to SEQ ID NO: 1, wherein the maize EPSPS sequence has a Met added at the N-terminal. The diversity used was the same with the addition of G101A, T102 (IALGV) and P106(WA). In all, 43 substitutions at 29 positions were selected. The library was synthesized entirely from oligonucleotides, using the known technique of synthetic shuffling and was termed NatFS (Native, fully synthetic). The vector DNA of the library was transformed into the BL21(DE3) Tuner-AroA knockout strain and the cells were plated onto M9 medium containing either 30 mM glyphosate and 30 μM of the lac operon inducer isopropyl β-D-1-thiogalactopyranoside (IPTG) or 50 mM glyphosate and no IPTG. The 184 colonies that grew on either plate were picked and subjected to a second tier of screening in which EPSPS proteins were purified and activity measured at high (200 μM) and low (50 μM) PEP and S3P, with or without 10 μM glyphosate. Selected variants were subjected to substrate saturation kinetic analysis.

[3] = Table 2, 30 μM PEP and S3P, 1 mM glyphosate, pH 7.0
[4] = Table 2, KM for PEP, read-out: KM
[5] = Table 2, discrimination between glyphosate and PEP
[6] = apparent Km, PEP present at 10 times its Km, read-out: Km S3P
[7] = apparent Km, S3P present at 10 times its Km, read-out: Km PEP

| Molecule | kcat gly (maize EPSPS [1]; [3]) [s⁻¹] | Ki (maize EPSPS [2]; Ki for glyphosate) [µM] | kcat (maize EPSPS [2]; Table 2) [s⁻¹] | kcat/KM*KI (maize EPSPS [2]; Table 2) | Km (maize EPSPS [2]; [4]) [µM] | KI/KM (maize EPSPS [2]; [5]) | Ki (maize EPSPS [2]; Table 2, inhibitor glyphosate) [µM] | Km (maize EPSPS [2]; [6]) [µM] | Km (maize EPSPS [2]; [7]) [µM] | kcat/Km*Ki (maize EPSPS [2]) | kcat (maize EPSPS [2]; maize EPSPS variants) [s⁻¹] | further results |
| --- | --- | --- | --- | --- | --- | --- | --- | --- | --- | --- | --- | --- |
| B1 | 0.203 | 1930 ± 40 | 10.2 | 3176 | 315 | 5.11 | 1610 | 84 ± 2.5 | 333 ± 26 | 5780 | 16.67 ± 0.583 | kgly (maize EPSPS [1]; enzyme turnover at 30 μM PEP and S3P, 1 mM glyphosate): 25.7 ± 0.2 min⁻¹; increase in Ki for glyphosate (maize EPSPS [2]; relative to native EPSPS): 30,00 fold; increase in Km for PEP (maize EPSPS [2]; relative to native EPSPS): 35 fold; KI/KM (maize EPSPS [2]; text b176): 5.1 |
| B2 | 0 | 0.066 ± 0.003 | 24.4 | 11.8 | 15.7 | 0.008 | 0.13 | 13.2 ± 0.6 | 9.5 ± 0.3 | 11 | 27.17 ± 0.233 | kcat/KM*KI (maize EPSPS [2]): 11.8; Km (maize EPSPS [2]; approximate value, read-out: Km for S3P): 10 to 15 µM; Ki (maize EPSPS [2]; glyphosate, text b235): 0.066 µM; Km (maize EPSPS [2]; read-out: Km for PEP): 10 to 15 µM |
| B3 | 1.72 |  | 6.07 | 18100 | 20 | 49.7 | 993 |  |  |  |  | kcat gly (maize EPSPS [1]; Table 5, maize variants): 1.9 s⁻¹; Zm/Os (maize EPSPS [1]; Table 5, ratio of kcat gly, maize variant to rice ortholog): 1.28 |
| B4 | 1.7 |  | 7.87 | 36400 | 21.8 | 77.1 | 1680 |  |  |  |  |  |
| B5 | 1.68 |  | 7.97 | 22900 | 19.6 | 47.9 | 938 |  |  |  |  |  |
